The source of these data is patent US20120027684A1 (IMMATICS BIOTECHNOLOGIES, published 2012).

The target in the assay is HLA A*0201 (human). Briefly: ELISA-based peptide-HLA binding method (Sylvester-Hvid et al., 2002). A general note: ELISA stands for enzyme-linked immunosorbent assay.

On to LLGATCMFV (also called cyclin peptide CCN-001) [CCN-001], for which the binding result was “binds”.
